Reference: publication PMC5651801

Target: 4-HIL dehydrogenase (HILDH) from Bacillus thuringiensis 2e2, wild type (Bacillus thuringiensis 2e2)
Test: crystal structure; HILDH with 10 mM NADH, sitting-drop vapor diffusion at 20 °C, 30% PEG 400, 0.1 M acetate pH 4.5, 0.2 M calcium acetate; 2.20 Å

stoichiometry N: 4
Substance: 4-HIL dehydrogenase (HILDH) from Bacillus thuringiensis 2e2, wild type (enzyme)
